Laboratory results taken from paper PMC11641934.

Molecular target: heat shock protein 70 (HSP70) (human (endogenous in PDAC cell lines and CAFs)) (UniProt P0DMV8)
Chain of UniProt P0DMV8 (P0DMV8 whole entry): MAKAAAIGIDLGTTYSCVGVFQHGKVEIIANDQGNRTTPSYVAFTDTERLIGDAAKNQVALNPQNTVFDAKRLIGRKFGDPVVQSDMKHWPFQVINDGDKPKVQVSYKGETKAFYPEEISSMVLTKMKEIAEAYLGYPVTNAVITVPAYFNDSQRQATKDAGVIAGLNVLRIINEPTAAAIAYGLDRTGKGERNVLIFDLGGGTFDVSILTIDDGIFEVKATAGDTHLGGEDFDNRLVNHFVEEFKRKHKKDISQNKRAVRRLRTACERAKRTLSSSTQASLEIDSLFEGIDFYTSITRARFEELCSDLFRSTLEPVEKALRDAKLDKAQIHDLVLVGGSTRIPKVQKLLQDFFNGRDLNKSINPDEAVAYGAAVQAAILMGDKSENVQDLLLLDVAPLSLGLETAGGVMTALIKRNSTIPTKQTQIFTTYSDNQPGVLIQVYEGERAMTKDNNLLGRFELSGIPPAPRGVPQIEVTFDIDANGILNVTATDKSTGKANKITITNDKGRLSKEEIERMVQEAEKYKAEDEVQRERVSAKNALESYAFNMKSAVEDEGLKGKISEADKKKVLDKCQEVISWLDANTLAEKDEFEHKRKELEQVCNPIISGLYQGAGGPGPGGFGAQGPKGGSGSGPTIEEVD

- % rescue by recombinant Pn 2-1 in GEM-treated AsPC1 cells, CTRL siRNA group (counteracted by HSPA1A knockdown): 11.2%
- % rescue by recombinant Pn 2-1 in GEM-treated BxPC3 cells, CTRL siRNA group (counteracted by HSPA1A knockdown): 5.4%
- % rescue by recombinant Pn 2-1 in GEM-treated Panc1 cells, CTRL siRNA group (counteracted by HSPA1A knockdown): 86.3%
Substance: His tagged-recombinant Pn-ASV with exon 21 (Pn 2-1) (from UniProt Q15063-5 22-809) (natural protein)
